Article PMC7156267, “Cryo-EM structures of S-OPA1 reveal its interactions with membrane and changes upon nucleotide binding” (eLife, 2020)

Molecular target: the molecule itself
Assay: SEC; Superdex 200 10/300 GL, column pre-calibrated with molecular weight markers; 20 mM Tris-HCl pH 8.0, 150 mM NaCl, 1 mM DTT; self-association in solution

B1: S-OPA1 (short S1 isoform of human OPA1, splice form 1), wild type (natural protein, UniProt O60313 196-960, looked up)
chain: TDRGSESDKHFRKVSDKEKIDQLQEELLHTQLKYQRILERLEKENKELRKLVLQKDDKGIHHRKLKKSLIDMYSEVLDVLSDYDASYNTQDHLPRVVVVGDQSAGKTSVLEMIAQARIFPRGSGEMMTRSPVKVTLSEGPHHVALFKDSSREFDLTKEEDLAALRHEIELRMRKNVKEGCTVSPETISLNVKGPGLQRMVLVDLPGVINTVTSGMAPDTKETIFSISKAYMQNPNAIILCIQDGSVDAERSIVTDLVSQMDPHGRRTIFVLTKVDLAEKNVASPSRIQQIIEGKLFPMKALGYFAVVTGKGNSSESIEAIREYEEEFFQNSKLLKTSMLKAHQVTTRNLSLAVSDCFWKMVRESVEQQADSFKATRFNLETEWKNNYPRLRELDRNELFEKAKNEILDEVISLSQVTPKHWEEILQQSLWERVSTHVIENIYLPAAQTMNSGTFNTTVDIKLKQWTDKQLPNKAVEVAWETLQEEFSRFMTEPKGKEHDDIFDKLKEAVKEESIKRHKWNDFAEDSLRVIQHNALEDRSISDKQQWDAAIYFMEEALQARLKDTENAIENMVGPDWKKRWLYWKNRTQEQCVHNETKNELEKMLKCNEEHPAYLASDEITTVRKNLESRGVEVDPSLIKDTWHQVYRRHFLKTALNHCNLCRRGFYYYQRHFVDSELECNDVVLFWRIQRMLAITANTLRQQLTNTEVRRLEKNVKEVLEDFAEDGEKKIKLLTGKRVQLAEDLKKVREIQEKLDAFIEALHQEK
notes: Optic atrophy 1 (OPA1), human, splice form 1 (isoform 1); Dimer in solution by gel filtration, BS3 cross-linking and SEC-MALS; The first residue is worked out from the S1 site (195th residue) and the name of the deletion Δ196-252; also called WT; full-length S-OPA1; source: E. coli Transetta (DE3), purified (Ni-NTA, PreScission cleavage, Superdex 200 gel filtration); not shown: Trx, N-terminal, …
  stoichiometry N: 2
